The results in this text go back to PMC5095702 (Biochemistry, 2016).

This series deals with the molecule itself. In words: SEC.

B1: KdnB from Shewanella oneidensis (enzyme, S. oneidensis, UniProt Q8EEB0 1-356, looked up)
chain: MSFKNFKVVEKMIFGRGSFVQLDDVLAAQRKADDDFVVFLVDDVHQGKPLEARIPVKAQDLLIWVNVDEEPSTIQIDALTEQVQAFNGKLPVSVVGLGGGSTMDVAKAVSLMLTNPGGSAMYQGWDLIKKPAVHHIGIPTISGTGAEASRTAVLCGPVRKLGLNSDYTVFDQIIMDSELIDGVETDQWFYTGMDCYIHCVESLEGTFLNEFSKAYAEKAMDLCRQVYLEDHPEKDDKLMMASFMGGMSIAYSQVGACHAVSYGLSYILGYHHGIGNCIAFDVLEEFYPEGVAEFRLMMKKHNITLPKNICKDLPDETIAKMVAVTKSMGPLWANVYGPTWEEKVTDEMLTALFRRI
Take B1: the “stoichiometry N” value came to 2.
